Molecular target: the molecule itself
Experiment: SEC

B1: Lac repressor (first 331 residues, dimeric, without the C-terminal tetramerization domain) (domain or fragment)
chain: MKPVTLYDVAEYAGVSYQTVSRVVNQASHVSAKTREKVEAAMAELNYIPNRVAQQLAGKQSLLIGVATSSLALHAPSQIVAAIKSRADQLGASVVVSMVERSGVEACKAAVHNLLAQRVSGLIINYPLDDQDAIAVEAACTNVPALFLDVSDQTPINSIIFSHEDGTRLGVEHLVALGHQQIALLAGPLSSVSARLRLAGWHKYLTRNQIQPIAEREGDWSAMSGFQQTMQMLNEGIVPTAMLVANDQMALGAMRAITESGLRVGADISVVGYDDTEDSSCYIPPLTTIKQDFRLLGQTSVDRLLQLSQGQAVKGNQLLPVSLVKRKTTLA
B1: binds.
